Results: PMC2857461 (The EMBO Journal, 2010)

Legend:
AUC = molecular target: the molecule itself; test: AUC
cross-linking = molecular target: the molecule itself; test: cross-linking

B1: His‐CT2 (domain or fragment, human, UniProt Q13563 680-968, looked up)
chain: INDTYSEVKSDLAQQKAEMELSDLIRKGYHKALVKLKLKKNTVDDISESLRQGGGKLNFDELRQDLKGKGHTDAEIEAIFTKYDQDGDQELTEHEHQQMRDDLEKEREDLDLDHSSLPRPMSSRSFPRSLDDSEEDDDEDSGHSSRRRGSISSGVSYEEFQVLVRRVDRMEHSIGSIVSKIDAVIVKLEIMERAKLKRREVLGRLLDGVAEDERLGRDSEIHREQMERLVREELERWESDDAASQISHGLGTPVGLNGQPRPRSSRPSSSQSTEGMEGAGGNGSSNVHV
AUC
  stoichiometry N: 2
cross-linking
  stoichiometry N: 4
